From paper PMC10703496

Target: 6×His-tagged receptor-binding domain (RBD) of SARS-CoV-2 spike, B.1.617.2 (Delta) (SARS-CoV-2) (UniProt P0DTC2)
Test: SPR

Substance “ACE2(18–615)-QMP: monomeric ACE2 peptidase domain (residues 18–615) fused to the N-terminal end of QMP human albumin (from UniProt Q9BYF1-1;P02768)” has a Kd of 80.3 nM, a koff of 0.0258 s⁻¹ and a kon of 321000 M⁻¹ s⁻¹.
For “ACE2(18–615)-WT: monomeric ACE2 peptidase domain (residues 18–615) fused to the N-terminal end of fu (from UniProt Q9BYF1-1;P02768)”, the Kd was 175 nM, the koff was 0.0083 s⁻¹ and the kon was 47000 M⁻¹ s⁻¹.
With “ACE2-YTY-QMP: dimeric ACE2 with T27Y/L79T/N330Y (YTY) fused to QMP albumin (from UniProt Q9BYF1-1;P02768)” the Kd was 0.2 nM, the koff was 4e-05 s⁻¹ and the kon was 201000 M⁻¹ s⁻¹.
For “ACE2(18–740)-QMP: truncated dimeric human ACE2 (residues 18–740) fused to the N-terminal end of engi (from UniProt Q9BYF1-1;P02768)”, the Kd was 2 nM, the koff was 0.00024 s⁻¹ and the kon was 119000 M⁻¹ s⁻¹.
For “ACE2(18–740)-WT: truncated dimeric human ACE2 (residues 18–740) fused to the N-terminal end of full- (from UniProt Q9BYF1-1;P02768)”, the Kd was 1.3 nM, the koff was 0.00021 s⁻¹ and the kon was 159000 M⁻¹ s⁻¹.
